Key:
[1] = biological target: T1, human CTLA-4 on Jurkat cells engineered to constitutively express human CTLA-4 (Promega) (human, UniProt P16410 36-223); experiment: flow cytometry, 5 µg/ml antibody on Jurkat cells expressing human CTLA-4
T1 construct: Bought cell line; also called CTLA-4-expressing cells; cells expressing human CTLA-4
Description: The binding of anti-CTLA-4 antibodies AGEN1884.H3 (IgG_1 S239D/I332E), AGEN1884.H3 (IgG_1 S239D/A330L/I332E), and AGEN1884.H3 (IgG_1L235V/F243L/R292P/Y300L/P396L) to CTLA-4-expressing cells was characterized similarly as described above. Briefly, Jurkat cells engineered to express human CTLA-4 (Promega) were stained first with 5 μg/ml of an anti-CTLA-4 antibody or an isotype control antibody and then with an anti-human IgG secondary antibody (Thermo Scientific, Cat #31529). The cells were analyzed using BD FACS Canto II.

[2] = biological target: T1, human CTLA-4 on Jurkat cells engineered …; experiment: flow cytometry, 2 µg/ml antibody on Jurkat cells expressing human CTLA-4
Description: Jurkat cells engineered to constitutively express human CTLA-4 (Promega) were used to analyze the binding of anti-CTLA-4 antibodies. Briefly, the cells were stained at 5 ×10^5 cells/well using 2 µg/ml of antibody in a 96-well plate for 30 minutes at 4° C. The cells were washed twice and incubated for 20 minutes at 4° C. with an anti-human IgG secondary antibody (Thermo Scientific, Cat #31529). The cells were washed and suspended in […] of 2% paraformaldehyde (Alfa Aesar, Cat #43368) prepared in PBS. Data were collected with BD FACS Canto II.

Row | Binder | binding result [1] | binding result [2]
1 | AGEN1884.H3 (IgG1 S239D/A330L/I332E) (antibody, Section 7.2.2 prints 'A330E'; also called AGEN1884.H3 (IgG1-S239D/A330E/I332E) as printed in section 7.2.2) heavy: EVQLVESGGGLVKPGGSLRLSCAASGFTFSSYSMNWVRQAPGKGLEWVSSISSSSSYIYYAESVKGRFTISRDNAKNSLYLQMNSLRAEDTAVYYCARVGLFGPFDIWGQGTLVTVSSASTKGPSVFPLAPSSKSTSGGTAALGCLVKDYFPEPVTVSWNSGALTSGVHTFPAVLQSSGLYSLSSVVTVPSSSLGTQTYICNVNHKPSNTKVDKRVEPKSCDKTHTCPPCPAPELLGGPDVFLFPPKPKDTLMISRTPEVTCVVVDVSHEDPEVKFNWYVDGVEVHNAKTKPREEQYNSTYRVVSVLTVLHQDWLNGKEYKCKVSNKALPLPEEKTISKAKGQPREPQVYTLPPSREEMTKNQVSLTCLVKGFYPSDIAVEWESNGQPENNYKTTPPVLDSDGSFFLYSKLTVDKSRWQQGNVFSCSVMHEALHNHYTQKSLSLSPG light: not shown | binds | 
2 | AGEN1884.H1.1 (IgG1) (antibody, V domains shown) VH: EVQLVESGGGLVKPGGSLRLSCAASGFTFSSYSMNWVRQAPGKGLEWVSSISSSSSYIYYADSVKGRFTISRDNAKNSLYLQMNSLRAEDTAVYYCARVGLFGPFDIWGQGTMVTVSS VL: EIVLTQSPGTLSLSPGERATLSCRASQSVSRYLGWYQQKPGQAPRLLIYGASTRATGIPDRFSGSGSGTDFTLTITRLEPEDFAVYYCQQYGSSPWTFGQGTKVEIK |  | binds
3 | AGEN1884.H1.2 (IgG1) (antibody, V domains shown) VH: EVQLVESGGGLVKPGGSLRLSCAASGFTFSSYSMNWVRQAPGKGLEWVSSISSSSSYIYYADSVKGRFTISRDNAKNSLYLQMNSLRAEDTAVYYCARVGLMGPFDIWGQGTLVTVSS VL: EIVLTQSPGTLSLSPGERATLSCRASQSVSRYLGWYQQKPGQAPRLLIYGASTRATGIPDRFSGSGSGTDFTLTITRLEPEDFAVYYCQQYGSSPWTFGQGTKVEIK |  | binds
4 | AGEN1884.H1.3 (IgG1) (antibody, V domains shown) VH: EVQLVESGGGLVKPGGSLRLSCAASGFTFSSYSMNWVRQAPGKGLEWVSSISSSSSYIYYAESVKGRFTISRDNAKNSLYLQMNSLRAEDTAVYYCARVGLMGPFDIWGQGTMVTVSS VL: EIVLTQSPGTLSLSPGERATLSCRASQSVSRYLGWYQQKPGQAPRLLIYGASTRATGIPDRFSGSGSGTDFTLTITRLEPEDFAVYYCQQYGSSPWTFGQGTKVEIK |  | binds

Other lines, results leading:

Row | binding result [1] | binding result [2] | Binder
5 | binds |  | AGEN1884.H3 (IgG1 L235V/F243L/R292P/Y300L/P396L) (antibody) heavy: EVQLVESGGGLVKPGGSLRLSCAASGFTFSSYSMNWVRQAPGKGLEWVSSISSSSSYIYYAESVKGRFTISRDNAKNSLYLQMNSLRAEDTAVYYCARVGLFGPFDIWGQGTLVTVSSASTKGPSVFPLAPSSKSTSGGTAALGCLVKDYFPEPVTVSWNSGALTSGVHTFPAVLQSSGLYSLSSVVTVPSSSLGTQTYICNVNHKPSNTKVDKRVEPKSCDKTHTCPPCPAPELVGGPSVFLLPPKPKDTLMISRTPEVTCVVVDVSHEDPEVKFNWYVDGVEVHNAKTKPPEEQYNSTLRVVSVLTVLHQDWLNGKEYKCKVSNKALPAPIEKTISKAKGQPREPQVYTLPPSREEMTKNQVSLTCLVKGFYPSDIAVEWESNGQPENNYKTTPLVLDSDGSFFLYSKLTVDKSRWQQGNVFSCSVMHEALHNHYTQKSLSLSPG light: not shown
6 |  | binds | AGEN1884.H2.1 (IgG1) (antibody, V domains shown) VH: EVQLVESGGGLVKPGGSLRLSCAASGFTFSSYSMNWVRQAPGKGLEWVSSISSSSSYIYYADSVKGRFTISRDNAKNSLYLQMNSLRAEDTAVYYCARVGLFGPFDIWGQGTLVTVSS VL: EIVLTQSPGTLSLSPGERATLSCRASQSVSRYLGWYQQKPGQAPRLLIYGASTRATGIPDRFSGSGSGTDFTLTITRLEPEDFAVYYCQQYGSSPWTFGQGTKVEIK
7 |  | binds | AGEN1884.H2.3 (IgG1) (antibody, V domains shown) VH: EVQLVESGGGLVKPGGSLRLSCAASGFTFSSYSMNWVRQAPGKGLEWVSSISSSSSYIYYAESVKGRFTISRDNAKNSLYLQMNSLRAEDTAVYYCARVGLMGPFDIWGQGTLVTVSS VL: EIVLTQSPGTLSLSPGERATLSCRASQSVSRYLGWYQQKPGQAPRLLIYGASTRATGIPDRFSGSGSGTDFTLTITRLEPEDFAVYYCQQYGSSPWTFGQGTKVEIK
8 |  | binds | AGEN1884.H2.2 (IgG1) (antibody, V domains shown) VH: EVQLVESGGGLVKPGGSLRLSCAASGFTFSSYSMNWVRQAPGKGLEWVSSISSSSSYIYYAESVKGRFTISRDNAKNSLYLQMNSLRAEDTAVYYCARVGLFGPFDIWGQGTMVTVSS VL: EIVLTQSPGTLSLSPGERATLSCRASQSVSRYLGWYQQKPGQAPRLLIYGASTRATGIPDRFSGSGSGTDFTLTITRLEPEDFAVYYCQQYGSSPWTFGQGTKVEIK
